From the supplement of paper PMC10724198
± gives the standard deviation of the averaged measurements.

What was measured:
Saccharomyces cerevisiae [1] = test: protein stability index of tFT-peptide fusion (C-terminal peptide) (PSI (0-1 scale)); higher = more stable (slower turnover); settings: genetic background: wild type; temperature: 30 C
Saccharomyces cerevisiae [2] = test: as above
Procedure: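 MPS profiling in S. cerevisiae of the tFT-X12 degron library: putative degron peptides plus stable controls, 12 aa, fused to the C-terminus of a sfGFP-mCherry timer. Cells are FACS-sorted into 8 mCherry/sfGFP bins and deep-sequenced. PSI runs from 0 (unstable) to 1 (stable). Backgrounds are wild type, das1Δ and doa10Δ at 30 °C, and wild type, das1Δ, cdc34-1 and cdc53-1 at 37 °C; 2-3 technical replicates each.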

[3] = genetic background: cdc34-1, temperature: 37 C
[4] = genetic background: cdc53-1, temperature: 37 C
[5] = genetic background: das1 deletion, temperature: 30 C
[6] = genetic background: das1 deletion, temperature: 37 C
[7] = genetic background: doa10 deletion, temperature: 30 C
[8] = genetic background: wild type, temperature: 30 C
[9] = genetic background: wild type, temperature: 37 C
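Note: PSI is a weighted mean of sequencing reads over stability bins, variants kept only with over 10 reads, mCherry proximal and sfGFP distal, peptide attached via GGGS linker.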

Sequence	protein stability index (Saccharomyces cerevisiae [1])	protein stability index (Saccharomyces cerevisiae [2]; [3])	protein stability index (Saccharomyces cerevisiae [2]; [4])	protein stability index (Saccharomyces cerevisiae [2]; [5])	protein stability index (Saccharomyces cerevisiae [2]; [6])	protein stability index (Saccharomyces cerevisiae [2]; [7])	protein stability index (Saccharomyces cerevisiae [2]; [8])	protein stability index (Saccharomyces cerevisiae [2]; [9])
FMPFSLLALFVW	0.343 ± 0.017	0.286 ± 0.00069	0.318 ± 0.0033	0.267 ± 0.02	0.372 ± 0.0064	0.2321 ± 0.0021	0.241 ± 0.041	0.328 ± 0.0069
FNLTCLLISFFN	0.519 ± 0.045	0.593 ± 0.02	0.609 ± 0.063	0.453 ± 0.036	0.658 ± 0.0081	0.368 ± 0.005	0.417 ± 0.015	0.553 ± 0.028
FPCIFFFCLFIL	0.271 ± 0.05	0.209 ± 0.039	0.197 ± 0.0039	0.251 ± 0.027	0.337 ± 0.025	0.31 ± 0.013	0.203 ± 0.021	0.276 ± 0.016
FPLGMFWVCFFV	0.264 ± 0.015	0.423 ± 0.026	0.464 ± 0.0058	0.357 ± 0.03	0.512 ± 0.025	0.181 ± 0.015	0.207 ± 0.023	0.357 ± 0.015
FPYARHLSVLLL	0.472 ± 0.029	0.598 ± 0.04	0.662 ± 0.02	0.564 ± 0.018	0.681 ± 0.022	0.371 ± 0.0079	0.392 ± 0.025	0.54 ± 0.007
FRFSCLFSLFLS	0.224 ± 0.011	0.413 ± 0.072	0.499 ± 0.01	0.478 ± 0.029	0.5168 ± 0.0051	0.169 ± 0.0091	0.143 ± 0.036	0.24 ± 0.025
FRLFSLWFCWVR	0.348 ± 0.015	0.13 ± 0.0073	0.0999 ± 0.022	0.227 ± 0.025	0.297 ± 0.014	0.365 ± 0.013	0.212 ± 0.034	0.26 ± 0.025
FRVSAFFLPFLS	0.4 ± 0.013	0.652 ± 0.031	0.715 ± 0.008	0.655 ± 0.022	0.735 ± 0.015	0.226 ± 0.011	0.246 ± 0.022	0.486 ± 0.048
FSFLLYASLVTH	0.314 ± 0.015	0.298 ± 0.016	0.343 ± 0.032	0.307 ± 0.021	0.333 ± 0.021	0.322 ± 0.0038	0.297 ± 0.013	0.3145 ± 0.00081
FSGFPLTLSPPL	0.7224 ± 0.0042	0.717 ± 0.029	0.7715 ± 0.0044	0.67 ± 0.024	0.753 ± 0.013	0.685 ± 0.0098	0.679 ± 0.019	0.73 ± 0.018
FSVLLLANFCFF	0.482 ± 0.0056	0.498 ± 0.031	0.516 ± 0.0072	0.409 ± 0.037	0.554 ± 0.015	0.363 ± 0.016	0.407 ± 0.043	0.528 ± 0.015
FSVLRLVIVSLL	0.0995 ± 0.012	0.227 ± 0.012	0.503 ± 0.067	0.35 ± 0.037	0.537 ± 0.019	0.0564 ± 0.004	0.0846 ± 0.04	0.0783 ± 0.029
FSVSYFRLVRLC	0.0191 ± 0.027	0.39 ± 0.017	0.572 ± 0.0077	0.458 ± 0.032	0.602 ± 0.0083	0.0722 ± 0.003	0.0819 ± 0.038	0.08731 ± 0.00027
FTNLDYTKEKNN	0.29 ± 0.017	0.423 ± 0.15	0.6798 ± 0.0014	0.623 ± 0.052	0.708 ± 0.042	0.134 ± 0.012	0.146 ± 0.025	0.178 ± 0.0045
FVIVSSCIGYAL	0.499 ± 0.015	0.603 ± 0.039	0.641 ± 0.036	0.451 ± 0.028	0.584 ± 0.0076	0.4365 ± 0.0039	0.46 ± 0.025	0.561 ± 0.032
FVLLSVCFFGCL	0.442 ± 0.024	0.306 ± 0.011	0.4219 ± 0.0028	0.336 ± 0.024	0.495 ± 0.017	0.301 ± 0.0069	0.327 ± 0.004	0.438 ± 0.044
FVMLSFLVSSLP	0.4255 ± 0.0037	0.404 ± 0.006	0.489 ± 0.039	0.346 ± 0.028	0.513 ± 0.006	0.3038 ± 0.0018	0.34 ± 0.017	0.495 ± 0.0055
FVMTYCLMSVSK	0.0465 ± 0.035	0.0323 ± 0.018	0.0364 ± 0.002	0.0746 ± 0.02	0.0531 ± 0.038	0.063 ± 0.0057	0.07 ± 0.016	0.0478 ± 0.025
FVRSVFFCVSVG	0.469 ± 0.057	0.498 ± 0.037	0.531 ± 0.017	0.396 ± 0.029	0.548 ± 0.019	0.34 ± 0.012	0.373 ± 0.027	0.5 ± 0.018
FVWAVGLVSASV	0.503 ± 0.01	0.507 ± 0.0064	0.527 ± 0.0082	0.402 ± 0.022	0.561 ± 0.0067	0.379 ± 0.013	0.414 ± 0.03	0.52 ± 0.0091

Sequence	protein stability index (Saccharomyces cerevisiae [1])	protein stability index (Saccharomyces cerevisiae [2]; [3])	protein stability index (Saccharomyces cerevisiae [2]; [4])	protein stability index (Saccharomyces cerevisiae [2]; [5])	protein stability index (Saccharomyces cerevisiae [2]; [6])	protein stability index (Saccharomyces cerevisiae [2]; [7])	protein stability index (Saccharomyces cerevisiae [2]; [8])	protein stability index (Saccharomyces cerevisiae [2]; [9])
FWLFAFVIRKHI	0.2057 ± 0.00034	0.286 ± 0.019	0.404 ± 0.013	0.324 ± 0.033	0.511 ± 0.007	0.10098 ± 0.0001	0.089 ± 0.0045	0.0641 ± 0.012
FYSLYLSLVCFN	0.224 ± 0.0011	0.345 ± 0.015	0.389 ± 0.0083	0.301 ± 0.034	0.454 ± 0.0076	0.161 ± 0.01	0.127 ± 0.016	0.256 ± 0.014
GAVKCLVCLAVW	0.404 ± 0.022	0.282 ± 0.0035	0.365 ± 0.054	0.309 ± 0.032	0.4138 ± 0.0017	0.26 ± 0.011	0.3 ± 0.026	0.3844 ± 0.00071
GCGFSFFHIVVL	0.121 ± 0.0051	0.111 ± 0.0053	0.113 ± 0.0037	0.147 ± 0.04	0.256 ± 0.024	0.416 ± 0.0071	0.152 ± 0.022	0.225 ± 0.0047
GCLFMQVSLFWR	0.286 ± 0.028	0.0959 ± 0.027	0.164 ± 0.018	0.147 ± 0.038	0.295 ± 0.023	0.177 ± 0.0049	0.138 ± 0.044	0.26 ± 0.017
GDINRNTRYLEK	0.556 ± 0.18	0.6705 ± 0.0048	0.7508 ± 0.0049	0.648 ± 0.029	0.698 ± 0.0092	0.649 ± 0.0063	0.6339 ± 0.0032	0.702 ± 0.024
GFGRRGQFGGTG	0.574 ± 0.14	0.86 ± 0.079	0.863 ± 0.016	0.607 ± 0.019	0.801 ± 0.048	0.542 ± 0.039	0.567 ± 0.04	0.835 ± 0.059
GFRVTTCASWIC	0.177 ± 0.02	0.557 ± 0.016	0.734 ± 0.011	0.612 ± 0.015	0.729 ± 0.015	0.143 ± 0.012	0.15 ± 0.027	0.191 ± 0.012
GFSEGRLTIPVY	0.455 ± 0.047	0.453 ± 0.025	0.4949 ± 0.0041	0.343 ± 0.04	0.5097 ± 0.0018	0.2949 ± 0.0027	0.345 ± 0.06	0.476 ± 0.01
GFVISSCRLFIL	0.337 ± 0.044	0.581 ± 0.052	0.632 ± 0.0072	0.59 ± 0.022	0.669 ± 0.011	0.272 ± 0.021	0.264 ± 0.024	0.3989 ± 0.0031
GFVLLCFCCRTW	0.393 ± 0.004	0.28 ± 0.01	0.421 ± 0.052	0.287 ± 0.032	0.4828 ± 0.0044	0.2477 ± 0.00056	0.277 ± 0.035	0.426 ± 0.03
GGCYAGVAMRLI	0.76 ± 0.015	0.653 ± 0.02	0.729 ± 0.026	0.644 ± 0.021	0.714 ± 0.042	0.632 ± 0.014	0.62 ± 0.027	0.681 ± 0.025
GGGVGVVWVRLG	0.256 ± 0.028	0.429 ± 0.03	0.678 ± 0.035	0.618 ± 0.013	0.72 ± 0.024	0.0905 ± 0.017	0.114 ± 0.014	0.137 ± 0.017
GGLFRWCVWRIV	0.145 ± 0.0086	0.413 ± 0.02	0.5292 ± 0.0032	0.545 ± 0.025	0.6377 ± 0.0015	0.102 ± 0.016	0.102 ± 0.0098	0.172 ± 0.025
GGSWVRCLRTMG	0.312 ± 0.029	0.628 ± 0.019	0.71 ± 0.024	0.614 ± 0.016	0.7097 ± 0.0014	0.17 ± 0.0073	0.158 ± 0.028	0.399 ± 0.032
GGVWLSVVSWVG	0.167 ± 0.021	0.156 ± 0.0086	0.238 ± 0.03	0.0995 ± 0.024	0.256 ± 0.012	0.0676 ± 0.00079	0.0976 ± 0.011	0.244 ± 0.0053
GGWSLFCIVVVV	0.268 ± 0.074	0.111 ± 0.039	0.171 ± 0.0092	0.179 ± 0.029	0.306 ± 0.0031	0.167 ± 0.013	0.173 ± 0.035	0.253 ± 0.0092
GIFVWWFWGCCG	0.399 ± 0.01	0.503 ± 0.016	0.585 ± 0.051	0.38 ± 0.023	0.567 ± 0.03	0.293 ± 0.02	0.321 ± 0.017	0.5283 ± 0.0019
GILILRLILCLF	0.227 ± 0.0044	0.251 ± 0.027	0.302 ± 0.047	0.248 ± 0.033	0.385 ± 0.023	0.171 ± 0.0058	0.189 ± 0.018	0.24 ± 0.012
